{"source": "paper PMC4080824", "about": "“Altered native stability is the dominant basis for susceptibility of α1-antitrypsin mutants to polymerization” (Biochemical Journal, 2014)", "molecules": {"B1": {"name": "α1-antitrypsin C232S E162C/V170C (162–170) (natural protein)", "chain": "DPQGDAAQKTDTSHHDQDHPTFNKITPNLAEFAFSLYRQLAHQSNSTNIFFSPVSIATAFAMLSLGTKADTHDEILEGLNFNLTEIPEAQIHEGFQELLRTLNQPDSQLQLTTGNGLFLSEGLKLVDKFLEDVKKLYHSEAFTVNFGDTEEAKKQINDYVCKGTQGKICDLVKELDRDTVFALVNYIFFKGKWERPFEVKDTEEEDFHVDQVTTVKVPMMKRLGMFNIQHSKKLSSWVLLMKYLGNATAIFFLPDEGKLQHLENELTHDIITKFLENEDRRSASLHLPKLSITGTYDLKSVLGQLGITKVFSNGADLSGVTEEAPLKLSKAVHKAVLTIDEKGTEAAGAMFLEAIPMSIPPEVKFNKPFVFLMIEQNTKSPLFMGKVVNPTQK", "modifications": "disulfide bond between C162 and C170 (predominantly in the disulfide-bonded form, >90%); reduced where treated with 100 mM 2-mercaptoethanol", "notes": "α1-antitrypsin, wild-type (M) ORF on the C232S background; Same construct as m3 with the stated changes; source: E. coli SG13009/pREP4 (pQE-30) or BL21(DE3) (pQE-81L), purified; not shown: His6, N-terminal, kept"}, "B2": {"name": "α1-antitrypsin C232S S283C/P361C (283–361) (natural protein)", "chain": "B1 chain with C161E, C169V, S282C, P360C", "modifications": "disulfide bond between C283 and C361 (predominantly in the disulfide-bonded form, >90%); reduced where treated with 100 mM 2-mercaptoethanol", "notes": "as for B1"}, "B3": {"name": "α1-antitrypsin C232S K168C/F189C (168–189) (natural protein)", "chain": "B1 chain with C161E, K167C, C169V, F188C", "modifications": "disulfide bond between C168 and C189 (predominantly in the disulfide-bonded form, >90%); reduced where treated with 100 mM 2-mercaptoethanol", "notes": "as for B1"}, "B4": {"name": "α1-antitrypsin C232S S292C/T339C (292–339) (natural protein)", "chain": "B1 chain with C161E, C169V, S291C, T338C", "modifications": "disulfide bond between C292 and C339 (predominantly in the disulfide-bonded form, >90%); reduced where treated with 100 mM 2-mercaptoethanol", "notes": "as for B1"}}, "key": {"[1]": {"target": "bovine α-chymotrypsin (bovine)", "assay": "stoichiometry of inhibition by titration of enzyme activity; inhibitor incubated with 0.5 μM bovine α-chymotrypsin for 30 min at room temperature (21°C) in 20 mM Tris/HCl, 0.1 M NaCl, 0.1% PEG 8000, 10 mM CaCl2 pH 8.0; residual activity on N-succinyl-Ala-Ala-Pro-Phe-p-nitroanilide"}, "[2]": {"target": "bovine α-chymotrypsin (bovine)", "assay": "stoichiometry of inhibition by titration of enzyme activity; as the stoichiometry of inhibition assay, protein treated with 100 mM 2-mercaptoethanol (reduced)"}, "[3]": {"target": "the molecule itself", "assay": "FRET or BRET; mutant series; 0.2 mg/ml protein, 4 μM Atto550–Ni-NTA and 4 μM Atto647N–Ni-NTA on the His6 tag, 10 mM NaH2PO4/Na2HPO4, 100 mM NaCl pH 7.4; heat-induced polymerization at 65°C; time to half-maximal signal"}, "[4]": {"target": "the molecule itself", "assay": "FRET or BRET; mutant series; 0.2 mg/ml protein, 4 μM Atto550–Ni-NTA and 4 μM Atto647N–Ni-NTA on the His6 tag, 10 mM NaH2PO4/Na2HPO4, 100 mM NaCl pH 7.4; heat-induced polymerization at 55°C; time to half-maximal signal"}, "[5]": {"target": "the molecule itself", "assay": "FRET or BRET; mutant series; 0.2 mg/ml protein, 4 μM Atto550–Ni-NTA and 4 μM Atto647N–Ni-NTA on the His6 tag, 10 mM NaH2PO4/Na2HPO4, 100 mM NaCl pH 7.4; heat-induced polymerization at 60°C; time to half-maximal signal"}}, "note": "Changes are numbered by the printed parent chain. In names and notes the source's numbering stands."}
{"molecule": "α1-antitrypsin C232S K168C/F189C (168–189) (from UniProt P01009 26-418) (natural protein)", "values": [{"measurement": "SI (stoichiometry of inhibition)", "setting": "[1]", "result": 8.5}]}
{"molecule": "α1-antitrypsin C232S K331V (from UniProt P01009 26-418) (natural protein)", "values": [{"measurement": "SI (stoichiometry of inhibition)", "setting": "[1]", "result": 3.9}]}
{"molecule": "α1-antitrypsin C232S K191C/T339C (191–339) (from UniProt P01009 26-418) (natural protein)", "values": [{"measurement": "SI (stoichiometry of inhibition)", "setting": "[2]", "result": 1}]}
{"molecule": "α1-antitrypsin C232S S292C/T339C (292–339) (from UniProt P01009 26-418) (natural protein)", "values": [{"measurement": "SI (stoichiometry of inhibition)", "setting": "[1]", "result": 1}, {"measurement": "SI (stoichiometry of inhibition)", "setting": "[2]", "result": 1}]}
{"molecule": "α1-antitrypsin C232S (AT_(C232S)) (from UniProt P01009 26-418) (natural protein)", "values": [{"measurement": "SI (stoichiometry of inhibition)", "setting": "[1]", "result": 1.1}]}
{"molecule": "α1-antitrypsin C232S E162C/V170C (162–170) (from UniProt P01009 26-418) (natural protein)", "values": [{"measurement": "SI (stoichiometry of inhibition)", "setting": "[1]", "result": 1}, {"measurement": "SI (stoichiometry of inhibition)", "setting": "[2]", "result": 1}]}
{"molecule": "α1-antitrypsin C232S K335A (from UniProt P01009 26-418) (natural protein)", "values": [{"measurement": "SI (stoichiometry of inhibition)", "setting": "[1]", "result": 1}]}
{"molecule": "α1-antitrypsin C232S S283C/P361C (283–361) (from UniProt P01009 26-418) (natural protein)", "values": [{"measurement": "SI (stoichiometry of inhibition)", "setting": "[1]", "result": 1}, {"measurement": "SI (stoichiometry of inhibition)", "setting": "[2]", "result": 1}]}
{"molecule": "B1", "values": [{"measurement": "polymerization half-time (t0.5)", "setting": "[3]", "result": 226, "unit": "s"}, {"measurement": "polymerization half-time (t0.5)", "setting": "[4]", "result": 3930, "unit": "s"}, {"measurement": "polymerization half-time (t0.5)", "setting": "[5]", "result": 941, "unit": "s"}]}
{"molecule": "B2", "values": [{"measurement": "polymerization half-time (t0.5)", "setting": "[3]", "result": 37, "unit": "s"}, {"measurement": "polymerization half-time (t0.5)", "setting": "[4]", "result": 8970, "unit": "s"}, {"measurement": "polymerization half-time (t0.5)", "setting": "[5]", "result": 1430, "unit": "s"}]}
{"molecule": "B3", "values": [{"measurement": "polymerization half-time (t0.5)", "setting": "[3]", "result": 1010, "unit": "s"}, {"measurement": "polymerization half-time (t0.5)", "setting": "[4]", "result": 21900, "unit": "s"}, {"measurement": "polymerization half-time (t0.5)", "setting": "[5]", "result": 8870, "unit": "s"}]}
{"molecule": "B4", "values": [{"measurement": "polymerization half-time (t0.5)", "setting": "[3]", "result": 51, "unit": "s"}, {"measurement": "polymerization half-time (t0.5)", "setting": "[4]", "result": 2290, "unit": "s"}, {"measurement": "polymerization half-time (t0.5)", "setting": "[5]", "result": 307, "unit": "s"}]}
